In US20150210768A1, “Methods and Compounds for Preventing, Treating and Diagnosing an Inflammatory Condition” (Westfaelische Wilhelms-Universitaet Muenster, priority 2012, published 2015):
Where a chain is given by its changes, count along the chain named. In names and notes the source's numbering stands.

B1: S100A8: recombinant human protein S100A8 (Uniprot P05109), used as homodimer (protein)
chain: MLTELEKALNSIIDVYHKYSLIKGNFHAVYRDDLKKLLETECPQYIRKKGADVWFKELDINTDGAVNFQEFLILVIKMGVAAHKKSHEESHKE
B2: S100A9 double mutant with alanine at both D65 and Q73 (ligand)
chain: MTCKMSQLERNIETIINTFHQYSVKLGHPDTLNQGEFKELVRKDLQNFLKKENKNEKVIEHIMEALDTNADKALSFEEFIMLMARLTWASHEKMHEGDEGPGHHHKPGLGEGTP
notes: Purified recombinant double mutant of human S100A9, homodimer
B3: S100A8/S100A9 (N69A): recombinant human S100A8/S100A9 with S100A9 EF hand II mutation N69A, prevents tetramer formation (protein)
chain 1: B1 chain
chain 2: B2 chain with A65D, N69A, A73Q
B4: S100A9: recombinant human protein S100A9 (Uniprot P06702), used as homodimer (protein)
chain: B2 chain with A65D, A73Q
B5: heterotetrameric complex between S100A8 and S100A9: complex of recombinant human S100A8 and S100A9, heterotetramer in presence of calcium (protein)
chain 1: B1 chain
chain 2: B2 chain with A65D, A73Q
B6: S100A9K72A (ligand)
chain: B2 chain with A65D, K72A, A73Q
notes: Purified recombinant mutant of human S100A9, homodimer; also called S100A9 K72A mutant
B7: S100A9 double mutant with alanine at both E64 and D65 (ligand)
chain: B2 chain with E64A, A73Q
notes: as for B2
B8: S100A9 double mutant with alanine at both E64 and Q73 (ligand)
chain: B2 chain with E64A, A65D
notes: as for B2
B9: S100A9 double mutant with alanine at both Q73 and E77 (ligand)
chain: B2 chain with A65D, E77A
notes: as for B2
B10: S100A9E64A (ligand)
chain: B2 chain with E64A, A65D, A73Q
notes: Purified recombinant mutant of human S100A9, homodimer; also called S100A9 E64A mutant
B11: S100A9Q73A (ligand)
chain: B2 chain with A65D
notes: Purified recombinant mutant of human S100A9, homodimer; also called S100A9 Q73A mutant
B12: S100A9E77A (ligand)
chain: B2 chain with A65D, A73Q, E77A
notes: Purified recombinant mutant of human S100A9, homodimer; also called S100A9 E77A mutant
B13: S100A9R85A (ligand)
chain: B2 chain with A65D, A73Q, R85A
notes: Purified recombinant mutant of human S100A9, homodimer; also called S100A9 R85A mutant
B14: S100A9D65A (ligand)
chain: B2 chain with A73Q
notes: Purified recombinant mutant of human S100A9, homodimer; also called S100A9 D65A mutant

Columns and labels:
TLR4/MD2 [1] = molecular target: T1, TLR4/MD2 (Homo sapiens, UniProt O00206); experiment: Immunoprecipitation of peptides on bead-coupled TLR4/MD2, eluates analysed by MALDI-TOF mass spectrometry; type: binding; parameters: purchased R&D SYSTEMS; conditions: bead-coupled his-tagged rhTLR4/MD2, 1 mM Calcium, 3 h at 4° C.; MALDI-TOF detection; FIG. 3B, 4, 5
Method: Anti-His antibody (5 μL, 0.5 mg/mL, Invivogen) and his-tagged rhTLR4/MD2 (5 μL, 1 mg/mL, carrier free, R&D SYSTEMS) were mixed and coupled to Protein A/G Agarose (50 μl, Pierce, Thermo Scientific). Trypsin digested peptides of S100A9 were added for 3 h at 4° C. in the presence of 1 mM Calcium. After washing of the beads in HBS/1 mM Ca-buffer for three times bound peptidic fragments were eluted by addition of 10 mM TRIS/2 mM EDTA-buffer and analysed by ESI-QIT- and MALDI-TOF-mass spectrometry. Identical experiments were performed to analyze the binding of the chemical synthesized peptides of S100A9 (aa63-79), S100A8 (aa55-71) and the corresponding control peptides aa63-79 AS and aa55-71 A3.

human monocytes = experiment: Stimulation of human monocytes, TNFα release quantified by ELISA; type: cell-based; conditions: for activation of monocytes (TNFα released into the culture medium): human monocytes stimulated for four hours, TNFα by ELISA, FIG. 1; for effect of mutation on function of the S100A9 homodimer: purified mutant S100A9 proteins, alanine exchange, binding to and activation of TLR4
Source text: Using standard techniques known in the art, the inventors expressed the individual human proteins S100A8 and S100A9 in recombinant form, and purified them. After generating homodimers and heterodimers, they analysed the properties of the complexes. FIG. 1 illustrates the stimulation of human monocytes for four hours with the indicated concentrations of (A) recombinant human S100A8, recombinant human S100A9 or human S100A8/S100A9, and (B) recombinant human S100A8/S100A9, recombinant human S100A8/S100A9 (N69A) or S100A8/S100A9 (E78A). TNFα released into the culture medium was quantified by means of ELISA.
Monocytes were isolated from human buffy coats by Ficoll-Paque and subsequent Percoll density centrifugation (Pharmacia, Freiburg, Germany) Cells were cultured in Teflon bags (Biofolie 25; Heraeus Instruments, Hanau, Germany) using McCoy's 5a medium supplemented with 15% fetal calf serum for 1 day before stimulation. Monocytes were incubated for 4 hours with different dosis of hS100A8, hS100A9, hS100A8/S100A9 or the modified proteins as indicated in the figures and TNF-α concentrations in supernatants were determined by ELISA (OptEIA, BD Biosciences, Germany).
Release of cytokine TNF-α was measured in the culture supernatants by ELISA (OptEIA, BD Biosciences). […]

his-tagged rhTLR4/MD2 [2] = molecular target: T2, his-tagged rhTLR4/MD2 (human, UniProt O00206 24-631; Q9Y6Y9 19-160); experiment: modified S100A9 ELISA, TLR4/MD2 coated on the plate, 2 ug/ml S100A9 protein, absorbance at 450 nm (FIG. 6C)
T2 construct: Bought recombinant human complex (carrier free, R&D SYSTEMS), his-tagged; In the pull-down it was captured by anti-His antibody on Protein A/G agarose; in the ELISA it was coated on the plate; also called TLR4/MD2 complex; TRLR4/MD2
Method: (§1) Binding of S100A9 proteins to TLR4/MD2 was analysed by a modified S100A9-ELISA. Briefly, TLR4/MD2 was coupled to the wells of a 96-well plate and served as capturing molecule. After blocking of the unspecific binding sites by PBS/5% skim milk powder plates were washed three times. S100A9-wt or mutant S100A9 proteins were added at a concentration of 2 μg/ml each in the presence and absence of 100 μM Calcium and incubated for two hours at room temperature. Unbound S100A9 was removed by washing the plates for three times followed by the addition of a primary anti-S100A9-antibody (1 μg/ml, polyclonal, rabbit). After a washing step the secondary anti-rabbit-IgG-antibody coupled to HRP (1 μg/ml from Cell Signalling) was added. TMB was used as substrate for HRP to quantify binding by absorbance readings at 450 nm in an ELISA reader (Anthos Mirkosysteme).

[3] = tested on: (S100A8/S100A9)2 tetramers; experiment: Formation of (S100A8/S100A9)2 tetramers after site directed mutagenesis; parameters: species or system human; conditions: mutation in second calcium binding EF hand of S100A9
Method: For the expression of recombinant (rec) proteins without additional peptide sequences, the cDNAs from wt S100A8, wt S100A9 and the S100A9 EF-hand mutants were cloned into the pET11/20 vector [50-NdeI; 30-BamHI]. […] Bacteria were grown at 37° C. in 2×YT for 24 h. Afterwards bacteria were harvested, lysed and the inclusion bodies (IB) prepared. The IB pellet was dissolved in 8 M urea buffer and to establish proper refolding samples were adjusted to pH 2.0-2.5 first by adding hydrochloric acid. After 60 min incubation at room temperature, samples were stepwise dialyzed to get adapted to pH 7.4 for refolding in the presence of 2 mM DTT. After centrifugation (10 min, 60,000 g, 4° C.) to pellet aggregated material, samples were further dialyzed and applied to anion exchange column and gel filtration chromatography. To prepare heterodimeric complexes the recombinant proteins were mixed 1:1 in equimolar concentrations first. Samples were stored as stock solutions at −20° C. Correct refolding and complex formation was assessed by SDS-PAGE, CD spectroscopy, MALDI-MS and ESI-MS.

his-tagged rhTLR4/MD2 [4] = molecular target: T2, his-tagged rhTLR4/MD2; experiment: modified S100A9 ELISA, TLR4/MD2 coated on the plate, 2 ug/ml S100A9 protein, absorbance at 450 nm
Method: as §1

TLR4/MD2 [5] = molecular target: T1, TLR4/MD2; experiment: Binding of S100A9-wt and mutant proteins to TLR4/MD2 (modified S100A9-ELISA); conditions: 2 μg/ml protein, plate-coupled TLR4/MD2, absorbance 450 nm; FIG. 6B, 6C
Method: as §1

T1 sequence (O00206 24-631 limits assumed): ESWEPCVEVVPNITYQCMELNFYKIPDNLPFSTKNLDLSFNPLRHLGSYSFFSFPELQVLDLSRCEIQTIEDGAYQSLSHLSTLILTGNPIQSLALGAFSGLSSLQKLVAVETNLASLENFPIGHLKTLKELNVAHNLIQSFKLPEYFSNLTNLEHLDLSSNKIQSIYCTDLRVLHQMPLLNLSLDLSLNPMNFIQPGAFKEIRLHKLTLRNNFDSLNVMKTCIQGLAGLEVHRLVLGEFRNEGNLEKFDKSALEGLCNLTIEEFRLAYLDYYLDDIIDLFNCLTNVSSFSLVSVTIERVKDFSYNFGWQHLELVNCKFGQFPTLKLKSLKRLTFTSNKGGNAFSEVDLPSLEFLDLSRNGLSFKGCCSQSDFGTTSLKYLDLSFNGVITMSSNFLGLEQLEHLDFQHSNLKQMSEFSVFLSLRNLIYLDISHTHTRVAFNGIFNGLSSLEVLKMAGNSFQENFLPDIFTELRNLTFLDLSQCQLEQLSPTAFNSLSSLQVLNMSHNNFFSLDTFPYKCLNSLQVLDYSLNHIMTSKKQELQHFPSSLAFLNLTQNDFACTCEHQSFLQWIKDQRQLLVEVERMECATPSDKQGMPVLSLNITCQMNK
T1 sequence (Q9Y6Y9 17-160 partner limits assumed): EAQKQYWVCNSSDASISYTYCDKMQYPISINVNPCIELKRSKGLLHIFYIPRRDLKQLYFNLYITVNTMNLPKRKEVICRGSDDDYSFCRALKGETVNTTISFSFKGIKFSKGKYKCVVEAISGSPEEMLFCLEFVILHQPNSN
T2 sequence (O00206 24-631 limits assumed, chain 1 of 2): as the sequence (O00206 24-631 limits assumed) above
T2 sequence (Q9Y6Y9 19-160 limits assumed, chain 2 of 2): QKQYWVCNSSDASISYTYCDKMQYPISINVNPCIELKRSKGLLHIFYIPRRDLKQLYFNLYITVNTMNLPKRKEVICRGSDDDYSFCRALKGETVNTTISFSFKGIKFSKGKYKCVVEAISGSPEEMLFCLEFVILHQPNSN

Molecule | binding result (his-tagged rhTLR4/MD2 [4]) | effect of mutation on function of the S100A9 homodimer (human monocytes) | binding to the receptor compared to non-mutated protein (S100A9 wt) (TLR4/MD2 [5]) | other results
55-71: synthetic peptide, positions 55-71 of human S100A8, complete C-terminal EF hand, FKELDINTDGAVNFQEF | – | – | – | binding to TLR4/MD2 (TLR4/MD2 [1]): able to bind to TLR4/MD2
63-79 A5: control peptide 63-79 of S100A9 with E64A, D65A, K72A, Q73A and E77A exchanged to alanine (MAALDTNADAALSFAEF) [reference compound] | – | – | – | binding to TLR4/MD2 (TLR4/MD2 [1]): no binding could be detected
63-79: synthetic peptide, positions 63-79 of S100A9, complete C-terminal EF hand, MEDLDTNADKQLSFEEF | – | – | – | binding to TLR4/MD2 (TLR4/MD2 [1]): able to bind to TLR4/MD2
No. 15: tryptic peptide of human S100A9, amino acid positions 73-85 (QLSFEEFIMLMAR, SEQ ID NO: 3) (QLSFEEFIMLMARTTT) | – | – | – | binding to TLR4/MD2 (TLR4/MD2 [1]): specific interaction with TLR4/MD2
B1 | – | – | – | activation of monocytes (TNFα released into the culture medium) (human monocytes): induce a particular strong, pro-inflammatory response in monocytes; activation of monocytes (TNFα released into the culture medium) (human monocytes; listed as homodimers of S100A8): induce this response
B2 | – | – | – | binding result (his-tagged rhTLR4/MD2 [2]): binds
B3 | – | – | – | tetramer formation [3]: inhibition of tetramer formation; activation of monocytes (TNFα released into the culture medium) (human monocytes): activation of monocytes that is comparable to the activation caused by homodimers
B4 | – | – | – | activation of monocytes (TNFα released into the culture medium) (human monocytes): induce a particular strong, pro-inflammatory response in monocytes; activation of monocytes (TNFα released into the culture medium) (human monocytes; listed as homodimers of S100A9): induce this response
B5 | – | – | – | activation of monocytes (TNFα released into the culture medium) (human monocytes): does not induce an inflammatory response in monocytes; activation of monocytes (TNFα released into the culture medium) (human monocytes; listed as heterotetrameric complex of s100A8 and S100A9): did not show activating properties that would be comparable to the individual components
B6 | binds | hardly any effect | not significantly different from the wild type protein | –
B7 | – | – | – | binding result (his-tagged rhTLR4/MD2 [2]): binds
B8 | – | – | – | binding result (his-tagged rhTLR4/MD2 [2]): binds
B9 | – | – | – | binding result (his-tagged rhTLR4/MD2 [2]): binds
B10 | binds | loss of function | weaker binding | –
B11 | binds | loss of function | weaker binding | –
B12 | binds | loss of function | weaker binding | –
B13 | binds | hardly any effect | not significantly different from the wild type protein | –
B14 | binds | loss of function | weaker binding | –
